The target of assay [1] is T1, mouse ROR1 over-expressed on CHO cells (CHO-mouse ROR1) (mouse, UniProt Q9Z139 30-937).
T1 construct: whole, on cells; also called cell surface-expressed mouse ROR1
Put plainly: flow cytometry, CHO-mouse ROR1 cells. From the text:
(§1) For this experiment, using cell lines (FIG. 5 and FIG. 7, respectively) transiently (CHO-human ROR1, CHO-human ROR2, CHO-mouse ROR1) or stably (MC38-human ROR1) transfected with ROR1 gene to achieve artificial over-expression of ROR1 protein, an ROR1-expressing cell line (JeKo-1, Mino) (FIG. 6), a non ROR1-expressing cell line (MCF7) (FIG. 6) and a FACSCalibur (BD Biosciences) device was used to measure the degree to which anti-ROR1 antibody and ROR1 were bound, as follows. […] JeKo-1, Mino, CHO-human ROR1, CHO-mouse ROR1 and MC38-human ROR1 are all cell lines which express human ROR1 or mouse ROR1.
Specifically, after dissociating each cell line and washing in PBS, the number of cells was counted and adjusted to 2×10⁵ cells/200 PBS. Then the respective ROR1 monoclonal antibodies prepared in Embodiment 3 were diluted 5 times from 10 /mL or 10 /mL, then reacted for 1 hour at 4° C. After the reaction, the cells were washed in PBS, then FITC-marked constant region (Fc) specific antibody (Goat anti-human IgG FITC conjugate, Fc specific, Sigma, F9512, concentration 20 mg/ml) was suspended in 2 /1×10⁵ cells/200 PBS and reacted for 1 hour at 4° C. As for identification of the degree of expression of the transiently over-expressed human ROR1, human ROR2 and mouse ROR1, a commercially available FACS analysis antibody (anti-ROR1: R&D Systems, FAB 2000G, anti-ROR2: R&D, FAB20641P) was used. After reacting the cells were washed in PBS and analyzed using a FACSCalibur device. The negative control (2nd Ab) was only treated with FITC-marked constant region (Fc) specific antibody. The shifted readings for the respective experimental groups treated with ROR1 monoclonal antibody were compared against the shifted reading for the control group (MFI Ratio: MFI of anti-ROR1/MFI of 2nd Ab).
In general terms: In flow cytometry, cells or beads pass a laser one at a time.

In assay [2] the target is T2, recombinant mouse ROR1 protein (Acrobiosystems, RO1-M5221) (mouse, UniProt Q9Z139 30-403).
T2 construct: Bought protein; also called mouse ROR1 antigen
T2 sequence (Q9Z139 30-403 limits assumed): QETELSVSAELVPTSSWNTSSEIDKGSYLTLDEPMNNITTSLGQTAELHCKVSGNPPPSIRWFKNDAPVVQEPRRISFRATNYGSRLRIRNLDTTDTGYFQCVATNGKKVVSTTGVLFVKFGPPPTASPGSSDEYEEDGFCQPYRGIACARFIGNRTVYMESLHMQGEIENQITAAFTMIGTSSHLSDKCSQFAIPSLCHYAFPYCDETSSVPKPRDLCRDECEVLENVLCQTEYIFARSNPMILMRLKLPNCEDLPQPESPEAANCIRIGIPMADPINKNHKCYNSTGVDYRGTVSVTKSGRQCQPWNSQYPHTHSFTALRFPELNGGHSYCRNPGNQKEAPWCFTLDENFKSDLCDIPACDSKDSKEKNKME
Briefly: ELISA, wells coated with recombinant mouse ROR1 protein, IgG titrated, HRP anti-Fab detection, OD (450-650nm). The protocol: (§2) Anti-ROR1 antibody antigen binding affinity was assessed using an ELISA-based solution binding assay. Specifically, a 96-well microtiter plate (Nunc-Immuno Plates), NUNC) was coated for 16 hours at 4° C. with the ROR1 protein described below at a concentration of 1 in PBS solution, and non-specific binding sites were blocked for 2 hours with 3% BSA (bovine serum albumin). Here, the ROR1 protein used was, in the case of human ROR1, the ROR1-Fc or recombinant human ROR1-His (Sino Biological, 13968-H08H) of Embodiment 1. The ROR1-His used in ELISA, as stated in the above sentence, was a protein from the Sino Biological company (13968-H08H), and the ROR1-His of Embodiment 1 or recombinant mouse ROR1 protein was used (Acrobiosystems, RO1-M5221-100 )
(§3) Subsequently, the anti-ROR1 antibodies prepared in Embodiment 3 were added at the concentrations stated in FIG. 2 to a 96-well microtiter plate, and binding capacity was analyzed using ELISA as follows. Specifically, after incubating for 2 hours, the plate was washed 5 times with PBS containing 0.05% Tween 20, then HRP-conjugated Fab multiclonal antibody reagent (Perce, 31414) was diluted to 1:10,000 and placed in the washed microtiter plate. After reacting for 1 hour at 37° C., the ROR1 antibodies bonded to the plate were detected. After the reaction, color development was performed using TMB (Tetramethylbenzidine, Sigma, T0440). The enzymatic reaction was stopped using 0.5 mol/L sulfuric acid, and absorbance at 450 nm and 650 nm was measured (450 nm-650 nm) using a micro plate reader (Molecular Device)

In assay [3] the target is T3, human ROR2 over-expressed on CHO cells (CHO-human ROR2) (human, UniProt Q01974 34-943).
T3 construct: whole, on cells; Negative control; also called family protein human ROR2
T3 sequence (Q01974 34-943): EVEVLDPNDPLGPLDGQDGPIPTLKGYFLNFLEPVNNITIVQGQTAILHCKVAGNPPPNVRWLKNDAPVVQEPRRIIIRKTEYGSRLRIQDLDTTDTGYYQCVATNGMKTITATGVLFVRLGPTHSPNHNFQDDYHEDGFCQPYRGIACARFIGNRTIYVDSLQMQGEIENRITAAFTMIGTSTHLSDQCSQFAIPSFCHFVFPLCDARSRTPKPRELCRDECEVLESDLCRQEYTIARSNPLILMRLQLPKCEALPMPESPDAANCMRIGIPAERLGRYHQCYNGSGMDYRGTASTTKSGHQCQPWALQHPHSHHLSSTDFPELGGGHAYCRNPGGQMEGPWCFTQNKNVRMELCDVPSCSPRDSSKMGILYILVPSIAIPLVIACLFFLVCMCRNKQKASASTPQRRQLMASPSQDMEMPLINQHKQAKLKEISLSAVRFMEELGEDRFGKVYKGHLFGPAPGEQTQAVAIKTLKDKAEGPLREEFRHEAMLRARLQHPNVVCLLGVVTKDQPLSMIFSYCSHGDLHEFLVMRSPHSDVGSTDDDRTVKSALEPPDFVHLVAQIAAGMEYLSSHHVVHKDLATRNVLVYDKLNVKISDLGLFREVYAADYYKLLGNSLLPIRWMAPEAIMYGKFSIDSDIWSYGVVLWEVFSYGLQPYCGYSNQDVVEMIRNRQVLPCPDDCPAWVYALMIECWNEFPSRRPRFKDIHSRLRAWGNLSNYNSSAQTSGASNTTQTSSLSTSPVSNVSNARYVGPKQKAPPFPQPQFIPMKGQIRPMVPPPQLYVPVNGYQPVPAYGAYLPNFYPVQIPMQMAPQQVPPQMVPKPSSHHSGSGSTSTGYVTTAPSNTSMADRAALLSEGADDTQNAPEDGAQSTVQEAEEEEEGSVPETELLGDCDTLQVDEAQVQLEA
Put plainly: flow cytometry, CHO-human ROR2 cells.
From the text: as §1
Specifically, after dissociating each cell line and washing in PBS, the number of cells was counted and adjusted to 2×10⁵ cells/200 PBS. Then the respective ROR1 monoclonal antibodies prepared in Embodiment 3 were diluted 5 times from 10 /mL or 10 /mL, then reacted for 1 hour at 4° C. […] After reacting the cells were washed in PBS and analyzed using a FACSCalibur device. […] The shifted readings for the respective experimental groups treated with ROR1 monoclonal antibody were compared against the shifted reading for the control group (MFI Ratio: MFI of anti-ROR1/MFI of 2nd Ab).

Assay [4] has as its target T4, recombinant human ROR1-His (Sino Biological, 13968-H08H) (human, UniProt Q01973 30-406).
T4 construct: extracellular domain; Bought protein; also called ROR1-HIS protein; not shown: His tag
Put plainly: BLI (Octet), ROR1-His on Anti-Penta-His or AR2G biosensor, IgG 30 to 0.021 nM, 1:1 fit. How it is done:
A 96-well black microplate (greiner bio one) was mounted on a biosensor tray case, and 200 10×KB or DW was added to each of 8 wells. Then Anti Penta His biosensors or 8 AR2G biosensors (ForteBio, USA) were inserted to hydrate for 10 minutes. 600 of the assay samples were diluted 2-fold or 3-fold to the appropriate assay concentrations, using 1×KB or 10×KB to 30 to 0.021 nM. To immobilize the antigen, recombinant human ROR1-His (Sino Biological, 13968-H08H) was diluted to 1 /ML with 10×KB or Sodium Acetate pH5 buffer. Immobilization was fixed at a threshold of 0.3 nm in the loading step. The association assay was carried out for 3 to 10 minutes, and the dissociation assay was carried out for 20 minutes. According to the Octet program template, the buffer was placed in a new 96-well black microplate according to order. As Baseline1, 200 10×KB or DW was placed. Then 200 each of 1 /mL of the antigen to be loaded, the ROR1-HIS protein, was added. As Baseline2, 200 10×KB or 1×KB was placed. Then to each well 30 to 0.021 nM of the diluted antibody and 200 each of 10×KB buffer or 1×KB corresponding to a reference blank was added. The temperature of the test plate was fixed at 30° C. After all of the samples were introduced, the equipment was started, and after the assay was completed, results were uploaded to the Octet Analysis 90 software, with KD values analyzed through 1:1 fitting. By obtaining KD values through the Octet assay method, it was confirmed that the anti-ROR1 antibody had strong binding potential to ROR1 antigen.

The target of assay [5] is T4, recombinant human ROR1-His (Sino …). Briefly: ELISA, wells coated with human ROR1 protein (sheet: 'human ROR1'; text: ROR1-Fc or ROR1-His), IgG titrated, HRP anti-Fab detection, OD (450-650nm). How it is done: as §2, §3
Background: In an ELISA, binding on a coated surface is turned into a signal by an enzyme label.

T4 sequence (Q01973 30-406): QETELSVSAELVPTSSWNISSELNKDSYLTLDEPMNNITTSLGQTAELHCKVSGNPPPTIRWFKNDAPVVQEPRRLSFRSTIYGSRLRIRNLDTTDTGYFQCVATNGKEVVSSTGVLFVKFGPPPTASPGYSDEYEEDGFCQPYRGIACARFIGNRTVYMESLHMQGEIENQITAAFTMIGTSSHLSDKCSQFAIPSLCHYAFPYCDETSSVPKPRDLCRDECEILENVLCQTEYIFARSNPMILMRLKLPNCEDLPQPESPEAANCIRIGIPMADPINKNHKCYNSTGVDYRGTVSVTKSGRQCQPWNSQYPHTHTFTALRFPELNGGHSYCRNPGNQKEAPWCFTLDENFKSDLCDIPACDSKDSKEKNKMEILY
T1 sequence (Q9Z139 30-937): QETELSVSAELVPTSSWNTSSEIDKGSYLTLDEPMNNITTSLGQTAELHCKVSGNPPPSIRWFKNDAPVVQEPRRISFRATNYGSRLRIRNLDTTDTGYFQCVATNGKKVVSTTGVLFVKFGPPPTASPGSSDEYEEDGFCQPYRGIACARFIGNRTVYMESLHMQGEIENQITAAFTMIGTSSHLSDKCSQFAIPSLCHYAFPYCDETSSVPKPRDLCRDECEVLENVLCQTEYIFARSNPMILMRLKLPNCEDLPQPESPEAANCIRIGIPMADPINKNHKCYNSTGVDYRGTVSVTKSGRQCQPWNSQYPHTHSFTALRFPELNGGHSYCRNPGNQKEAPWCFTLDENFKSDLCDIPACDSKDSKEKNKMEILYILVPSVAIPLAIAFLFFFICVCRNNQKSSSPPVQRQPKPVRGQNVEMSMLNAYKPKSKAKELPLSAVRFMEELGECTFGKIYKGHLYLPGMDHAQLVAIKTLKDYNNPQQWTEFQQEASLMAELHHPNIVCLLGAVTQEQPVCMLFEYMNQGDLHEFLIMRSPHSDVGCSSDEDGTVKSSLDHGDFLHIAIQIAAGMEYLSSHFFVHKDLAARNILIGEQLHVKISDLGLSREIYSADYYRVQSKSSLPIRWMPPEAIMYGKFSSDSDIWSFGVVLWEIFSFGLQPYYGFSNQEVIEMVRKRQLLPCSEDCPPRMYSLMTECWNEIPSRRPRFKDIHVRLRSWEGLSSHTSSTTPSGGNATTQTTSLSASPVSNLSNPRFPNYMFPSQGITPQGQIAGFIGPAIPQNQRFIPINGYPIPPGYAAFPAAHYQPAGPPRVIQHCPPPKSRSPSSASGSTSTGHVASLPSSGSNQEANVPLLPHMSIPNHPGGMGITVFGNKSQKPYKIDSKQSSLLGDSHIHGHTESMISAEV

B1: anti-ROR1 IgG antibody CC9 (antibody, V domains shown)
VH: EVQLLESGGGLVQPGGSLRLSCAASGFTFSSYDMSWVRQAPGKGLEWVSGISHGSGNKYYADSVKGRFTISRDNSKNTLYLQMNSLRAEDTAVYYCAKRLSLRRRPSYYSDNAMDVWGQGTLVTVSS
VL: QSVLTQPPSASGTPGQRVTISCTGSSSNIGNNAVNWYQQLPGTAPKLLIYYDSNRPSGVPDRFSGSKSGTSASLAISGLRSEDEADYYCGAWDDSLSGYVFGGGTKLTVLG
notes: Full IgG form (human IgG1 constant region, lambda light chain), expressed in CHO-S cells
Turning to B1, the binding result in assay [1] was “binds”. Besides, the binding result in assay [2] is reported as “binds”. Also, the binding result in assay [3] is reported as “no binding”. Moreover, in assay [4], the Kd (usually a measure of binding affinity in units of concentration) came out at 754 pM; the koff (in general, the rate constant with which the complex falls apart) is 0.000551 s⁻¹; the kon (commonly a measure of how fast the partners come together) was 731000 M⁻¹ s⁻¹. Besides, the EC50 (read off the curve) (as a rule, the concentration needed to bring the measured effect to its halfway point) in assay [5] is around 300 pM.

For the origin of these results see US20210069342A1 (LEGOCHEM BIOSCIENCES, published 2021).
